Measurements from patent US6436691B1, “Chemical compounds” (Zeneca Limited, priority 1995, dated 2002).

Tests used:
Type in all cases: biochemical
[1] = Conversion of prodrug of Example 24 to drug of Example 25 by HCPB mutants, HPLC (Example 20); details: enzyme 15 μg/ml; 0.5 mM prodrug of Example 24; 5 minutes at 37° C.
Method: The reaction was stopped by adding MeCN (500 μl) plus 0.2% Trifluoroacetic acid. The amount of drug produced was then quantified by HPLC.
HPLC separation was carried out as described in Example 6 except that a mobile phase of 70% MeCN, 30% distilled water and 0.1% trifluoroacetic acid was used to achieve separation of prodrug (retention time 3.8 minutes) and drug (retention time 4.9 minutes) and the compounds were detected at 260 nm. The amount of drug produced was quantified from calibration curves generated with known amounts of drug.
The amount of [Q54R,D145A,D253K]HCPB and [G251T,D253K]HCPB mutants was reduced to 0.75 μg in the reaction mixture.

[2] = Conversion of Hipp-Asp by purified HCPB mutants, 30 minutes, HPLC (Example 17); details: 0.5 mM substrate, 30 minutes at 37° C.
Method: (§1) Purified mutants of human CPB (D253K; [G251K,D253R]; [G251N,D253R]; [I201S,D253K]; [G251N,D253K]; [Q54R,D145A,D253K]; [G251T,D253K]; [G251S,D253K]; [A248N,G251N,D253K]; [A248S,G251N,D253K] and [S205N,G251N,D253K]—described in Examples 3, 12, 13, 16, 28, 30, 31, 32 and 33) were assayed for their ability to convert hippuryl-L-glutamic acid (Hipp-Glu—Reference Example 1), hippuryl-L-aspartic acid (Hipp-Asp—Reference Example 2) and hippuryl-L-arginine (Sigma Chemical Company—cat no. H6625) to hippuric acid using a HPLC based assay similar to that described in Example 6.
(§2) Samples were incubated for 30 minutes at 37° C. The reactions were terminated by the addition of 500 μl of 40% methanol, 60% distilled water, 0.2% trifluoro acetic acid and the amount of hippuric acid generated was quantitated by HPLC as described in Example 6 but using a mobile phase of 20% methanol, 80% 50 mM phosphate buffer, pH 6.5. Hippuric acid was detected at 230 nm. The results are shown in Table 5 and are expressed as the percentage conversion of substrate into product in 30 minutes at 37° C.

[3] = Conversion of Hipp-Arg by purified HCPB mutants, 30 minutes, HPLC (Example 17); details: 0.5 mM substrate, 30 minutes at 37° C.
Method: as §1, §2

[4] = Km and kcat of HCPB mutants with Hipp-Glu (Example 7); details: Hipp-Glu 0.25-8.0 mM; pH 7.5; 5 h at 37° C.
Method: Hipp-Glu and Hipp-Asp were diluted in range 0.25-8.0 mM and 0.25-5.0 mM respectively in 0.025 M Tris-HCL buffer, pH 7.5. Where necessary substrate samples were adjusted to pH 7.5 with 1M NaOH.
Samples were incubated for 5 h at 37° C. Reactions were terminated by the addition of 500 μl methanol/distilled water (80/20) containing 0.2% TFA. The amount of hippuric acid produced was quantified by HPLC as described in Example 6.
Km and Vmax values were calculated using the ENZFITTER software programme (Biosoft, Perkin Elmer).

[5] = Conversion of Hipp-Glu by purified HCPB mutants, 30 minutes, HPLC (Example 17); details: 0.5 mM substrate, 30 minutes at 37° C.
Method: as §1, §2

[6] = Activity against Hipp-Asp in crude E. coli periplasmic shockate relative to D253K or D253R HCPB (Example 16)
Source text: A number of other mutant HCPBs have been constructed in a similar manner to the methods described in Reference Examples 7 and 8, and Examples 12, 13, 14 and 15. In each case oligos were constructed to introduce specific changes in the gene sequence by methods similar to those described above. In some cases additional mutations were identified upon complete sequencing of the mutated gene, and these were presumably introduced during the PCR reactions. Mutants with enzyme activity against substrate analogues (see Example 18 below) have been identified, and examples of these are given in Table 4 below. […] This material is subsequently referred to as periplasmic shockate or shockate and is prepared by the following procedure.
1. A single colony was used to inoculate 75 ml of L-broth nutrient media containing 10 μg/ml tetracycline and arabinose to a final concentration of 0.01% (w/v). Incubation was performed at 20° C. with shaking (250 rpm) for about 60 hours.
2. The cells were then harvested by centrifugation at 4° C.
3. The cell pellet was re-suspended in 300 micro-liters of 20% sucrose (w/v) containing 1 mM EDTA in 200 mM Tris-HCl at pH7.5, and incubated at room-temperature for 15 minutes.
4. Periplasmic shockate was generated by the addition of 450 micro-liters of distilled water, and a further incubation at room-temperature for 15 minutes.
5. Cellular remains were removed by centrifugation, and the supernatant assayed for enzyme activity as soon as possible after preparation and kept at 4° C. prior to assay.
The activity of [G251T,D253K]HCPB was measured using the assay conditions described in Example 17 but using either 50 μl of a neat or 1 in 10 or 1 in 100 dilution of [G251T,D253K]HCPB crude E.coli periplasmic shockate (shockate) sample in place of purified enzyme. Samples were incubated for 24 h at 37° C. […] For other HCPB mutants, the reaction volume was 250 μl and contained 125 μl of neat shockate or 1 in 50 dilution of shockate. The shockate samples were prepared as described in Example 16. The amount of Hippuric acid produced in 24 h was quantified by HPLC as described in Example 17 and the results are shown in Table 6 and are expressed as the percentage conversion of substrate into product in 24 h at 37° C.

B1: [G251N,D253K]: HCPB mutant with G251N and D253K, (His)6-c-myc tag (protein, UniProt P15086 111-417, looked up, variant G251N D253K)
Carboxypeptidase B: ATGHSYEKYNKWETIEAWTQQVATENPALISRSVIGTTFEGRAIYLLKVGKAGQNKPAIFMDCGFHAREWISPAFCQWFVREAVRTYGREIQVTELLDKLDFYVLPVLNIDGYIYTWTKSRFWRKTRSTHTGSSCIGTDPNRNFDAGWCEIGASRNPCDETYCGPAAESEKETKALADFIRNKLSSIKAYLTIHSYSQMMIYPYSYAYKLGENNAELNALAKATVKELASLHGTKYTYGPGATTIYPAAGNSKDWAYDQGIRYSFTFELRDTGRYGFLLPESQIRATCEETFLAIKYVASYVLEHLY
modifications: (His)6-c-myc tag
- Prodrug Hydrolysis (%) [1]: 75.9%
- Hipp-Asp (% conversion) ([2]; enzyme 2.5 μg/ml): 1.9%
- Hipp-Asp (% conversion) ([2]; enzyme 25 μg/ml): 8.3%
- Hipp-Arg (% conversion) ([3]; enzyme 2.5 μg/ml): 0.4%
- Hipp-Arg (% conversion) ([3]; enzyme 25 μg/ml): 1.8%
- Km [4]: 2300 µM
- kcat, Hipp-Glu [4]: 24 s⁻¹
- Hipp-Glu (% conversion) ([5]; enzyme 2.5 μg/ml): 62.4%
- Hipp-Glu (% conversion) ([5]; enzyme 25 μg/ml): 100%

B2: [A248H, D253K]: HCPB mutant with A248H and D253K (protein, UniProt P15086 111-417, looked up, variant A248H D253K)
Carboxypeptidase B: ATGHSYEKYNKWETIEAWTQQVATENPALISRSVIGTTFEGRAIYLLKVGKAGQNKPAIFMDCGFHAREWISPAFCQWFVREAVRTYGREIQVTELLDKLDFYVLPVLNIDGYIYTWTKSRFWRKTRSTHTGSSCIGTDPNRNFDAGWCEIGASRNPCDETYCGPAAESEKETKALADFIRNKLSSIKAYLTIHSYSQMMIYPYSYAYKLGENNAELNALAKATVKELASLHGTKYTYGPGATTIYPHAGGSKDWAYDQGIRYSFTFELRDTGRYGFLLPESQIRATCEETFLAIKYVASYVLEHLY
- Hipp-Asp, activity relative to D253K HCPB or D253R HCPB [6]: NAD (No activity detected)

B3: [G251Q, D253K]: HCPB mutant with G251Q and D253K (protein, UniProt P15086 111-417, looked up, variant G251Q D253K)
Carboxypeptidase B: ATGHSYEKYNKWETIEAWTQQVATENPALISRSVIGTTFEGRAIYLLKVGKAGQNKPAIFMDCGFHAREWISPAFCQWFVREAVRTYGREIQVTELLDKLDFYVLPVLNIDGYIYTWTKSRFWRKTRSTHTGSSCIGTDPNRNFDAGWCEIGASRNPCDETYCGPAAESEKETKALADFIRNKLSSIKAYLTIHSYSQMMIYPYSYAYKLGENNAELNALAKATVKELASLHGTKYTYGPGATTIYPAAGQSKDWAYDQGIRYSFTFELRDTGRYGFLLPESQIRATCEETFLAIKYVASYVLEHLY
- Hipp-Asp, activity relative to D253K HCPB or D253R HCPB [6]: NAD (No activity detected)

B4: [G251K, D253R]: HCPB mutant with G251K and D253R (protein, UniProt P15086 111-417, looked up, variant G251K D253R)
Carboxypeptidase B: ATGHSYEKYNKWETIEAWTQQVATENPALISRSVIGTTFEGRAIYLLKVGKAGQNKPAIFMDCGFHAREWISPAFCQWFVREAVRTYGREIQVTELLDKLDFYVLPVLNIDGYIYTWTKSRFWRKTRSTHTGSSCIGTDPNRNFDAGWCEIGASRNPCDETYCGPAAESEKETKALADFIRNKLSSIKAYLTIHSYSQMMIYPYSYAYKLGENNAELNALAKATVKELASLHGTKYTYGPGATTIYPAAGKSRDWAYDQGIRYSFTFELRDTGRYGFLLPESQIRATCEETFLAIKYVASYVLEHLY
- Prodrug Hydrolysis (%) [1]: 16.2%
- Hipp-Asp (% conversion) ([2]; enzyme 2.5 μg/ml): 0.2%
- Hipp-Asp (% conversion) ([2]; enzyme 25 μg/ml): 0.2%
- Hipp-Arg (% conversion) ([3]; enzyme 2.5 μg/ml): 0%
- Hipp-Arg (% conversion) ([3]; enzyme 25 μg/ml): 0%
- Hipp-Asp, activity relative to D253K HCPB or D253R HCPB [6]: NAD (No activity detected)
- Hipp-Glu (% conversion) ([5]; enzyme 2.5 μg/ml): 3.2%
- Hipp-Glu (% conversion) ([5]; enzyme 25 μg/ml): 5.5%

B5: [A248S, G251S, D253K]: HCPB mutant with A248S, G251S and D253K (protein, UniProt P15086 111-417, looked up, variant A248S G251S D253K)
Carboxypeptidase B: ATGHSYEKYNKWETIEAWTQQVATENPALISRSVIGTTFEGRAIYLLKVGKAGQNKPAIFMDCGFHAREWISPAFCQWFVREAVRTYGREIQVTELLDKLDFYVLPVLNIDGYIYTWTKSRFWRKTRSTHTGSSCIGTDPNRNFDAGWCEIGASRNPCDETYCGPAAESEKETKALADFIRNKLSSIKAYLTIHSYSQMMIYPYSYAYKLGENNAELNALAKATVKELASLHGTKYTYGPGATTIYPSAGSSKDWAYDQGIRYSFTFELRDTGRYGFLLPESQIRATCEETFLAIKYVASYVLEHLY
- Hipp-Asp, activity relative to D253K HCPB or D253R HCPB [6]: NAD (No activity detected)

B6: [I245H, D253K]: HCPB mutant with I245H and D253K (protein, UniProt P15086 111-417, looked up, variant I245H D253K)
Carboxypeptidase B: ATGHSYEKYNKWETIEAWTQQVATENPALISRSVIGTTFEGRAIYLLKVGKAGQNKPAIFMDCGFHAREWISPAFCQWFVREAVRTYGREIQVTELLDKLDFYVLPVLNIDGYIYTWTKSRFWRKTRSTHTGSSCIGTDPNRNFDAGWCEIGASRNPCDETYCGPAAESEKETKALADFIRNKLSSIKAYLTIHSYSQMMIYPYSYAYKLGENNAELNALAKATVKELASLHGTKYTYGPGATTHYPAAGGSKDWAYDQGIRYSFTFELRDTGRYGFLLPESQIRATCEETFLAIKYVASYVLEHLY
- Hipp-Asp, activity relative to D253K HCPB or D253R HCPB [6]: NAD (No activity detected)

B7: [G251V, D253K]: HCPB mutant with G251V and D253K (protein, UniProt P15086 111-417, looked up, variant G251V D253K)
Carboxypeptidase B: ATGHSYEKYNKWETIEAWTQQVATENPALISRSVIGTTFEGRAIYLLKVGKAGQNKPAIFMDCGFHAREWISPAFCQWFVREAVRTYGREIQVTELLDKLDFYVLPVLNIDGYIYTWTKSRFWRKTRSTHTGSSCIGTDPNRNFDAGWCEIGASRNPCDETYCGPAAESEKETKALADFIRNKLSSIKAYLTIHSYSQMMIYPYSYAYKLGENNAELNALAKATVKELASLHGTKYTYGPGATTIYPAAGVSKDWAYDQGIRYSFTFELRDTGRYGFLLPESQIRATCEETFLAIKYVASYVLEHLY
- Hipp-Asp, activity relative to D253K HCPB or D253R HCPB [6]: NAD (No activity detected)
